Where no end group is shown, it is not given here.
Key:
[1] = molecular target: T1, Mono-ubiquitin (Sigma Aldrich) (UniProt P0CG48 1-76); experiment: SPR (BiaCore 3000), captured via GST on anti-GST chip, mono-ubiquitin injected, steady state
Excerpt: (§1) (FIG. 4C) Mono-ubiquitin interaction with single and tandem UBA domains from hHR23A and ubiquilin1 was monitored by real-time surface plasmon resonance (SPR).
All injections were done as randomized duplicates, and each experiment was repeated in triplicate. All the experimental profiles were double referenced using the Scrubber 2.0 software (BioLogic Software), i.e. both the signals from a His6-GST-SV5 reference surface and from blank experiments (running buffer instead of protein) were subtracted. The steady-state responses (Req) were estimated by averaging the signal monitored during the last 15 seconds of each injection. The Req values were plotted against the concentration (C) of mono or tetra-ubiquitin and fitted using the following equation:

[2] = molecular target: T1, Mono-ubiquitin (Sigma Aldrich); experiment: SPR (Biacore), GST fusion captured on anti-GST antibody chip (150-220 RU), mono-ubiquitin injected in a 2-fold dilution series, steady-state fit
Description: as §1
To measure real-time interactions, all experiments were performed with a BiaCore 3000 instrument, at 25° C., using HBS EP (0.01 B M HEPES pH 7.4, 0.15 M NaCl, 3 mM EDTA, 0.005% surfactant P20) (BiaCore) as running buffer. Anti GST antibody (BiaCore) was covalently immobilized on a CM5 chip (carboxy methylated dextran) from BiaCore with a density of approximately 9000 resonance units (RU≈pg·mm-2), using standard amino-coupling techniques and reagents (NHS, EDC, ethanolamine) from BiaCore. Purified GST-tagged polypeptide comprising ubiquitin binding domains of p62 protein and GST were diluted in running buffer and captured to similar levels in different flow cells. Single and tandem GST-fused UBA domains were captured on the sensor chip at low (30-55 RU) and high (130-220 RU) densities.
All injections were done as randomized duplicates, and each experiment was repeated in triplicate. […] The steady-state responses (Req) were estimated by averaging the signal monitored during the last 15 seconds of each injection.

B1: Ubiquilin1 UBA (single UBA domain, GST-fused) (other)
chain: VNPQLQNPEVRFQQQLEQLSAMGFLNREANLQALIATGGDINAAIERLLGSQPS
modifications: not fully specified (C-terminus); also: GST-fused, PreScission protease site and His6 tag, construct limits not given here
notes: not shown: glutathione-S-transferase (GST) encoded by the pGEX-6P1 vector (Amersham); PreScission protease site and His6 tag with vector linker residues
binding stoichiometry (molar ratio ubiquitin:UBA) [1]: 1 ubiquitin per UBA | Kd [2]: 41.3 µM

Source: patent publication US20090220470A1 (CENTRO DE INVESTIGACION COOPERATIVA EN BIOCIENCIAS CIC …, published 2009)
